Results from publication PMC11652653, “SON-1010: an albumin-binding IL-12 fusion protein that improves cytokine half-life, targets tumors, and enhances therapeutic efficacy” (Frontiers in Immunology, 2024).

Target: T1, human serum albumin (human, UniProt P02768 25-609)
T1 construct: human serum albumin (HSA); also called HSA; rHSA
Assay: SPR; HSA bound to the chip, SON-1010 added, then SPARC (ternary complex); pH 6.0
Details: both partners purified

Kd: 10 nM
B1: secreted protein acidic and rich in cysteine (natural protein, UniProt P09486 18-303, looked up)
chain: APQQEALPDETEVVEETVAEVTEVSVGANPVQVEVGEFDDGAEETEEEVVAENPCQNHHCKHGKVCELDENNTPMCVCQDPTSCPAPIGEFEKVCSNDNKTFDSSCHFFATKCTLEGTKKGHKLHLDYIGPCKYIPPCLDSELTEFPLRMRDWLKNVLVTLYERDEDNNLLTEKQKLRVKKIHENEKRLEAGDHPVELLARDFEKNYNMYIFPVHWQFGQLDQHPIDGYLSHTELAPLRAPLIPMEHCTTRFFETCDLDNDKYIALDEWAGCFGIKQKDIDKDLVI
notes: SPARC (secreted protein acidic and rich in cysteine); also called SPARC
